A short description of the data set: In vitro specific enzyme activity of idursulfase conjugate (4MU fluorescence). It counts as biochemical. The following applies: substrate 4MU-α-idopyraA-2, 37° C. 4 hours, then α-iduronidase 37° C. 24 hours; FIG. 5. How it is done: To examine the presence of any change in specific activity of idursulfase according to the preparation of idursulfase-10 K PEG-Fc-BTP22 conjugate, an in vitro experiment for specific activity of enzymes was performed, 4-Methylumbelliferyl α-L-idopyranosiduronic acid-2-sulfate sodium salt (4MU-α-idopyraA-2), which is known as an enzyme substrate for idursulfase, was reacted with idursulfase β and IDS-Fc-BTP22 at 37° C. for 4 hours, and then, reacted with α-iduronidase, which is a secondary reaction enzyme, at 37° C. for 24 hours. The enzyme activity of 4-methylumbelliferone (4 MU), the final product, was measured by the measurement of the fluorescence of the corresponding substance (FIG. 5).
In particular, the values of enzyme activity were calculated in terms of specific activity per converted rate of weight (μg).

B1: idursulfase (protein, UniProt P22304 34-455; P22304 456-550, looked up)
Iduronate 2-sulfatase 42 kDa …: TDALNVLLIIVDDLRPSLGCYGDKLVRSPNIDQLASHSLLFQNAFAQQAVCAPSRVSFLTGRRPDTTRLYDFNSYWRVHAGNFSTIPQYFKENGYVTMSVGKVFHPGISSNHTDDSPYSWSFPPYHPSSEKYENTKTCRGPDGELHANLLCPVDVLDVPEGTLPDKQSTEQAIQLLEKMKTSASPFFLAVGYHKPHIPFRYPKEFQKLYPLENITLAPDPEVPDGLPPVAYNPWMDIRQREDVQALNISVPYGPIPVDFQRKIRQSYFASVSYLDTQVGRLLSALDDLQLANSTIIAFTSDHGWALGEHGEWAKYSNFDVATHVPLIFYVPGRTASLPEAGEKLFPYLDPFDSASQLMEPGRQSMDLVELVSLFPTLAGLAGLQVPPRCPVPSFHVELCREGKNLLKHFRFRDLEEDPYLPG
Iduronate 2-sulfatase 14 kDa …: NPRELIAYSQYPRPSDIPQWNSDKPSLKDIKIMGYSIRTIDYRYTVWVGFNPDEFLANFSDIHAGELYFVDSDPLQDHNMYNDSQGGDLFQLLMP
notes: purified type of iduronate-2-sulfatase (Shire, Ireland), approximately 72 kDa
B1 yielded an enzyme activity (specific activity per weight of idursulfase part) of 23.4 ± 1.94 nmol/min/µg.
